Results from publication PMC3807668, “Structure of the CRISPR Interference Complex CSM Reveals Key Similarities with Cascade” (Molecular Cell, 2013).
Values joined by “and” are separate entries in the source; they are usually repeats but may differ in a detail not shown here. Equal entries are not always repeated.

T1: Sso1428 with C-terminal tandem tag (Strep and 10x His) (S. solfataricus, UniProt Q97YA4 1-558, methylation (residues not given))
T1 chain: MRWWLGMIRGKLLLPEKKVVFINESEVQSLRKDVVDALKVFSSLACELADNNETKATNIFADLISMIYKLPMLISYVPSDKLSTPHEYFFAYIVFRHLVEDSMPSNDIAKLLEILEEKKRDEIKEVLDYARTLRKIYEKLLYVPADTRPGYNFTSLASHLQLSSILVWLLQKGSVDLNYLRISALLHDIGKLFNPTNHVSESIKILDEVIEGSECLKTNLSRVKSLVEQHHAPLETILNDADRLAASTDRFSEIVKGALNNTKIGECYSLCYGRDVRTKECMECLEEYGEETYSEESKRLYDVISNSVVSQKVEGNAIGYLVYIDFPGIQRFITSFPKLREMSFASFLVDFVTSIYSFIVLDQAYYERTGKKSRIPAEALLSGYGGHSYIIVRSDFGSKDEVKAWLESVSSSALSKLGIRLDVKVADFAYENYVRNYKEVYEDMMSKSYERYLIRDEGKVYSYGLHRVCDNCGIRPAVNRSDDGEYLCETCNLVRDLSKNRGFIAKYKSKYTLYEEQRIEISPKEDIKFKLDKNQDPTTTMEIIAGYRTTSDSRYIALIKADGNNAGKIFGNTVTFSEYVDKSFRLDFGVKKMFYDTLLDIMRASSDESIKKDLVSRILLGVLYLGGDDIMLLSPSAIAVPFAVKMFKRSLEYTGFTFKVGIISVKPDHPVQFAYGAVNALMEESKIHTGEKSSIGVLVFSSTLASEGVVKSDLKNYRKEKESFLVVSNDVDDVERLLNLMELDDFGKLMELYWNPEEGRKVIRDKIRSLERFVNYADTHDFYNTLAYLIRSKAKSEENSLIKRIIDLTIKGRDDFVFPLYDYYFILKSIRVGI

B1: Sso1427 (natural protein, UniProt Q97YA5 1-275, looked up)
chain: MQRSPIRRSNYTPRNEKGLEGVIELQLNVVSDYLHVGSGKYDVEVMRSVSDVKRLVEDYLSGGNKRIPNNVDQYFSMVAFLMVRNKDNVVIPGSTIKGMVRSRLELSVPGSCYIVTGHSTSSSAVYKRIFNPDPNRGSDRFDVNKFPQVCPVCDLLGNMGLASRVSLSDFVMTSGKVDYVNVKGRDYEVVTKGSIFAGKVLYKSLKPVEIGMLLYGFGFVKDCNGSKVMLLGRFKFSDKRFGRVKFSLKTPIADCNKLVSDFVKQFNPRYINEEW
modifications: methylation (residues not given)
notes: Sso1427, RAMP subunit of the CSM complex of S. solfataricus; its mass lies within 70 Da of that of Sso1426; also called RAMP subunit; Csm3 paralog; source: endogenous, S. solfataricus PH1-16; co-purified with the tagged subunit (HisTrap, monoQ, gel filtration)
B2: Sso1431 (untagged, in the complex purified by tagged Sso1428) (natural protein, UniProt Q97YA1 1-304, looked up)
chain: MILIKLKVKGYITTQMRRIRNYYFSITNYIPSTTLRGAILAEYYNQTGKIDENFYVSPAYPIKTAPAHYFSPAKERKGDEFIEVKRILEKKEKEFEANKPIEEIMKLEIDGKHPKPKIGSLITYEGETDKENKYREFSSKSIIQMHVAIDKTSISSYKGMLFAYEYKEFDEMWAIASDSEVIDTVKRIKIGRGKNRGNKVVDVEKVREVSLDQSKGLLYCLSPCIGSLFGKTFFKAKYIIGDKSIYSGWFTVDSFSGQKPVFETLREGSLVYVESFSNEKSLMPAGLNFMLRISDLSSILNKVS
modifications: methylation; phosphorylation (residues not given)
notes: Csm4 (Sso1431, Cas5 subfamily RAMP protein) of the CSM complex of S. solfataricus; also called Csm4; Cas5-like RAMP subunit; source: endogenous, S. solfataricus PH1-16; co-purified with tagged Sso1428 (HisTrap, monoQ, gel filtration)
B3: Sso1430 (natural protein, UniProt Q97YA2 1-206, looked up)
chain: MIPIKVSMRNLSSLTIAGGSTISSIDIPLNPLGVPPSTIKGTMRTAVHNLLPNGYTSCGEVEPESIREAHKNGVCDVCKLFGYPDSLTGCFTIDVSKTDYRTSYITRVSIDDKTQRAKEGSLFTQQIILPNSDISFTVYYNCNDERLFKLLLYSILDLRYWRLGRNTMIDVKVNNVEEICKSVKCDEEINGILNQLSRYLWEAENK
modifications: methylation (residues not given)
notes: Sso1430, subunit of the CSM complex of S. solfataricus; also called RAMP subunit; Csm3 paralog; source: endogenous, S. solfataricus PH1-16; co-purified with the tagged subunit (HisTrap, monoQ, gel filtration)

Columns and labels:
[1] = target: T1, Sso1428 with C-terminal tandem tag …; test: quantitative proteomics with isotope-labelled dipeptides (LC-MS); purified CSM complex spiked with synthetic (15N,13C)-labelled dipeptides joining a peptide of each subunit to the reference peptide of Sso1428, trypsin digest, LTQ-Orbitrap; ratio of peak areas; details: both partners purified
[2] = target: T1, Sso1428 with C-terminal tandem tag …; test: native MS + other: quantitative proteomics with isotope-labelled peptides; exhaustive mass search on the intact mass 427,611 Da; copy numbers of Sso1424, Sso1425 and Sso1426 allowed to vary by one, the others fixed by Table 1; one hit within a mass error of 3%; details: both partners purified
[3] = target: B2; test: native MS; purified CSM complex disassembled in 200 mM ammonium acetate with 5%-20% acetic acid (pH 3.9, 3.5, 3.2); subcomplexes of 357 to 120 kDa assigned by tandem MS; interaction map deduced from the disassembly pattern with the help of the EM shape; details: both partners purified
Sso1427 = target: B1; test: cross-linking; purified CSM complex (1 ug/ul) with a 1:1 mixture of d4 and d0 BS3, 1 hr at room temperature; cross-linked peptides found by MS (MassMatrix) and validated by hand; details: both partners purified
[4] = target: the molecule itself; test: native MS + other: quantitative proteomics with isotope-labelled peptides; exhaustive mass search on the intact mass 427,611 Da; copy numbers of Sso1424, Sso1425 and Sso1426 allowed to vary by one, the others fixed by Table 1; one hit within a mass error of 3%
Sso1430 = target: B3; test: native MS; purified CSM complex disassembled in 200 mM ammonium acetate with 5%-20% acetic acid (pH 3.9, 3.5, 3.2); subcomplexes of 357 to 120 kDa assigned by tandem MS; interaction map deduced from the disassembly pattern with the help of the EM shape; details: both partners purified

Binder	stoichiometry N [1]	stoichiometry N [2]	binding result [3]	binding result (Sso1427)	stoichiometry N [4] [copies]	binding result (Sso1430)
B1	0.8 subunit:Sso1428 and 0.79 subunit:Sso1428 and 0.83 subunit:Sso1428 and 0.81 subunit:Sso1428	1 subunit:Sso1428	binds	–	–	–
Sso1424 (natural protein, UniProt Q97YA8 16-139, looked up, acetylated N-terminal Ser-16; seven methylated lysines (positions not given), Sso1424, small subunit (probably Csm2) of the CSM complex of S. solfataricus; three copies in the CSM complex; also called small subunit; Csm2; source: endogenous, S. solfataricus PH1-16; co-purified with the tagged subunit (HisTrap, monoQ, gel filtration)) SSQDLLDIATRIAISAIKPKPKSNKPEPYVDSSTINSLLSFLQSRRNVNELLLYIMRQAGRDEIDEETGKLLLASLKDRELKDAVNLLGYVKWVYDTLTGLKVNYNNVKGVKTFKELVNILSKV	3.62 subunit:Sso1428 and 3.51 subunit:Sso1428 and 4.03 subunit:Sso1428 and 3.72 subunit:Sso1428	3 subunit:Sso1428	–	binds	3	binds
Sso1432 (natural protein, UniProt Q97YA0 1-252, looked up, methylation (residues not given), Sso1432, RAMP subunit of the CSM complex of S. solfataricus; also called RAMP subunit; Csm3 paralog; source: endogenous, S. solfataricus PH1-16; co-purified with the tagged subunit (HisTrap, monoQ, gel filtration)) MVIQVFRLNFRLRTGFRVGGGQEVGDNVIRQLRIGVEGVMIPASSWKGMFRRVSEIVLNSEDHFEEHSKKEVDTRTINALLKSDEKFRRIAISKVGKEVITQNGINVDKLDSESLSDLRRIYNEYNCPIERLYGSNYFAGGITISDSVIPNASIMERTHVTIERKSKKASEKHLFSEEIIDAEKIEVKVIVRNEFELWKNSLKLLREIGYFIGGSKSRGIGYIVLDEKESEYAVINNFSETPKFSELKRYLS	0.92 subunit:Sso1428 and 0.91 subunit:Sso1428 and 0.96 subunit:Sso1428 and 0.93 subunit:Sso1428	1 subunit:Sso1428	–	–	–	–
B2	0.67 subunit:Sso1428 and 0.65 subunit:Sso1428 and 0.7 subunit:Sso1428	1 subunit:Sso1428	–	–	–	–
B3	–	1 subunit:Sso1428	–	–	–	–
Sso1425 (natural protein, UniProt Q97YA7 1-250, looked up, methylation; phosphorylation (residues not given), Sso1425, RAMP subunit of the CSM complex of S. solfataricus; also called RAMP subunit; Csm3 paralog; source: endogenous, S. solfataricus PH1-16; co-purified with the tagged subunit (HisTrap, monoQ, gel filtration)) MKMSCMDLDVITTVVKIEGKLRNETLLRVGKGKTQDFAEATDNPIIKYRDRPLIPGSSLKGAFRSLVESYTKSLNDSKYYVCDLDDNSCVSCEEKKKDNGIVEGRYCIPCILFGFKDLASRVYILDAIAEKYSISQRTMVAINRVFGGQMPGHLYTLDYVDPGSEFSFMMMIYNLNLIEGEKDWKAKSVEALKFLLATLVREGIFVGARKSVGYGLIKLVDAKVSLYKAPDHLVSPVIVKKLEEVIGTNG	1.45 subunit:Sso1428 and 1.35 subunit:Sso1428 and 1.56 subunit:Sso1428	1 subunit:Sso1428	–	–	–	–
Sso1426 (natural protein, UniProt Q97YA6 1-281, looked up, methylation (residues not given), Sso1426, RAMP subunit assigned to the Csm3 (Cas7-like) family, CSM complex of S. solfataricus; four copies in the CSM complex; its mass lies within 70 Da of that of Sso1427; also called Csm3; Cas7 family RAMP subunit; source: endogenous, S. solfataricus PH1-16; co-purified with the tagged subunit (HisTrap, monoQ, gel filtration)) MVLMVNYTFIDKRVIKRTTMIEGDVETVSPLKIGGGKDNFDPSSLAKDSILKDVEGRPIIPGSSWKGIFRSTGERILRLRNIEVCSGIGKDYCLNNNRKERDFNSALKENVDQALEIFWDYTCLNCKVFGTMSVIGAVRFLDSLPISYSLNTRSMIAISRTEGAVARRALVTVEYVDVGSKFSFKMMGYNLPNYAIGYLITIMKNIHDGFTQVGGHKSRGFGFVKFGKVKFTDLGEKRIGDEDIQVKDVGDLVEGNGDEFFGRMKPFMEAFNNAKIPYPKK	4.85 subunit:Sso1428 and 4.81 subunit:Sso1428 and 4.73 subunit:Sso1428 and 4.8 subunit:Sso1428	4 subunit:Sso1428	–	–	4	–
